B1: Hairpin Ribozyme (parent)
chain: GUCCUCUUUCACGUGCGCGUGAAAGAGAGAAGUGAACCAGAGAAACACACGUUGUGGUAUAUUACCUGGUA

Variants of: B1
Assay: self-cleavage, relative activity (ratio to wild type); higher = more cleavage; co-transcriptional

In order of falling self-cleavage:
1. GUCCUCUUUCACAUGCGCGUGAAAGAGAGAAGUGAACCAGAGAAACACACGUUGUGGUAUAUUACCUGGUC  1.36
2. GUCCUCUUUCACGUGCGAGUGAAAGAGAGAAGUGAACCAGAGAAACACACGUUGUGGUAAAUUACCUGGUA  1.02
3. GUCCUCUUUCACGUGUGCGUGAAAGAGAGAAGUGAACCAGAGAAACACACGUUGUGGUAAAUUACCUGGUA  1.01
4. GUCCUCCUUCACGUGCGAGUGAAAGAGAGAAGUGAACCAGAGAAACACACGUUGUGGUAUAUUACCUGGUA  0.973
5. GUCCUCUUUCGCGUGCGCGUGAAAGAGAGAAGUGAACCAGAGAAACACACAUUGUGGUAUAUUACCUGGUA  0.93
6. GUGCUCUUUCACGUGCGCGUGAAAGAGAGAAGUCAACCAGAGAAACACACGUUGUGGUAUAUUACCUGGUA  0.911
7. GUCCUCUUUCACGUGCGCGUGCAAGAGAGAAGUGAACCAGAGAAACACACGUUGUGGUAUAUUACCUGGCA  0.892
8. GUCCUCUUUCACGUGCGCGCGAAAGAGAGAAGUGAACCAGAGAAACACACGUAGUGGUAUAUUACCUGGUA  0.861
9. GUCCUCUUUAACGUGCGCGUGAAAGAGAGAAGUGCACCAGAGAAACACACGUUGUGGUAUAUUACCUGGUA  0.846
10. GUCCUUUUUCACGUGCGCGCGAAAGAGAGAAGUGAACCAGAGAAACACACGUUGUGGUAUAUUACCUGGUA  0.806
11. GUCCUCUUUCACGAGCGCGUGGAAGAGAGAAGUGAACCAGAGAAACACACGUUGUGGUAUAUUACCUGGUA  0.762
12. GUCCUCUUUCACGUGCGCGUGAACGAGAGAAGUGAACCAGAGAAACACACGUUGUGGGAUAUUACCUGGUA  0.761
13. GUCCUCUUUCACCUACGCGUGAAAGAGAGAAGUGAACCAGAGAAACACACGUUGUGGUAUAUUACCUGGUA  0.74
14. GUCCUCUUUCAAGUGCGCGUGAAAGAGAGAAGUGAACCAGAGAAACACACGUUGUGGUAUAUUACCUGGCA  0.722
15. GUCCUCUUUCACGUGCGCGACAAAGAGAGAAGUGAACCAGAGAAACACACGUUGUGGUAUAUUACCUGGUA  0.691
16. GUCCUCUUUCAUGUGCGCGUGAAAGAGAGAAGUGAACCAGGGAAACACACGUUGUGGUAUAUUACCUGGUA  0.676
17. GUCCUCUUUCACGUGCGCGUGAAAGAGAGAAGUGAAUCAGAGAAACACACGCUGUGGUAUAUUACCUGGUA  0.651
18. GUCCUCUUUCACGUGCGCGUGAAAGAGAGAAGUGAACCAGAGAAACACACGUUAUGGCAUAUUACCUGGUA  0.635
19. GUCCUCUUUGACGUGCGCGUGAAAGAGAGAAGUGAACCAGAGAAACACACGGUGUGGUAUAUUACCUGGUA  0.631
20. GUCCUCUUUCACAUGCGCGUGAAAGAGAGAAGUGAACCAGAGAAACACACGUUGUGGUAUAUUACCUGGCA  0.615
21. GUCCUCUUUCACGUGCGCCUGAGAGAGAGAAGUGAACCAGAGAAACACACGUUGUGGUAUAUUACCUGGUA  0.611
22. GUCCUCUUUCACGAGCGCGUGAAAGAGAGAAGUGAACCAGAGAAACACGCGUUGUGGUAUAUUACCUGGUA  0.554
23. GUCCUCUUUCACGUGCGCGUGAAAGAGAGAAGUGAGCCGGAGAAACACACGUUGUGGUAUAUUACCUGGUA  0.513
24. GUCCUCUCUCACGUGCGCGUGAAAGAGAGAAGUGAACCAGAGAAACACACGCUGUGGUAUAUUACCUGGUA  0.405
25. GUCCUCUUUCACGUGCGCGUGAAAGAGAGAAGUGAAGCAGAGAAACACACGUUGUGGCAUAUUACCUGGUA  0.335
26. GUCCUCUGUCACGUGCGCGUGAAAGAGAGAAGUGAACCAGAGAAACACACGUUGUGGUAUAUUACCUGCUA  0.323
27. GUCCUCUUUCACGUGCGCGUGAAAGAGUGAAGUGAACCAGAGAAACACACGUUUUGGUAUAUUACCUGGUA  0.3
28. GUCCGCUUUCACGUGCGCGUGAAAGAGAGAAGUGCACCAGAGAAACACACGUUGUGGUAUAUUACCUGGUA  0.254
29. GUCCUCUUUCACGUGCGCGUGAAAGAGAGAGGUGAACCCGAGAAACACACGUUGUGGUAUAUUACCUGGUA  0.253
30. GUCCUCUUUCACGUGCGCGUGAAAGAGAGAAGUGAACCAGAGAAACACAAGUUGUGGUAUAUUACCUGGUG  0.253
31. GUCCUCUUUCACGUGCGCGUGAAAGAGAGAAGUGAACCAGAGAAACACAGAUUGUGGUAUAUUACCUGGUA  0.249
32. GUCCUCUUUCACGUGCGCGUGAAAGAGAGAAGUGAACCAGCGAAACACACGUUGUGGUAUAUUACCCGGUA  0.249
33. GUCCUCUUUCACGUGCGCGUGAAAGUGAGAAGUGAACCAGAGAAACACACGUUGUGGUAUAUUACCUGCUA  0.247
34. GUCCUCUUUCACGUGCGCGUGAAAGAGAGAAGUGACCCAGAGAACCACACGUUGUGGUAUAUUACCUGGUA  0.236
35. GUCCUCUUUCACGUGCGCGUGUAAGAGAGAAGCGAACCAGAGAAACACACGUUGUGGUAUAUUACCUGGUA  0.235
36. GUCCUCUUUCACGUGCGCGUGAAAGAGAGAAGUGAACCGGAGAAACACACCUUGUGGUAUAUUACCUGGUA  0.232
37. GUCAUCUUUCACGUGCGCGUGAAAGAGAGAAGUGAACCAGAGAAACACACGUUGUGGUAUAUUACCUGGUA  0.218
38. GUCCUCUUCCACGUGCGCGUGAAAGAGAGAAGUGAACCAGAGAAACACAAGUUGUGGUAUAUUACCUGGUA  0.215
39. GUCCUCUUUCACGGGCGCGUGAAAGAGAGAAGUGAACCAGAGAAACACACGUUGUGGUAUACUACCUGGUA  0.213
40. GUCCUCUUUCACGUGCGCGUGAAAGAGAGAAGUGAACCAGAGAAACAUACGUUGUGUUAUAUUACCUGGUA  0.204
41. GUCCUCUGUCACGUGCGCGUGAAAUAGAGAAGUGAACCAGAGAAACACACGUUGUGGUAUAUUACCUGGUA  0.2
42. GUCCUCUUUCACGUGCGCGUGAAAGAGAGAAGUGAACCAGAGAAACACACGUUGUGGUUAAUUACCUGGUA  0.195
43. GUCCUCUUUCACGUGCGCGUCAAAGAGAGAAGUGAAACAGAGAAACACACGUUGUGGUAUAUUACCUGGUA  0.192
44. GUCCUCUUUCACGUGCGCGUGAAACAGAGAAGUGAACCAGAGAAACACAUGUUGUGGUAUAUUACCUGGUA  0.192
45. GUCCUCUUUCACGUGCGCGUGAAAGCGAGAAGUGAACGAGAGAAACACACGUUGUGGUAUAUUACCUGGUA  0.182
46. UUCCUCUUUCACGUGCGCGUGAAAGAGAGAAGUGAACCAGAGAAACACACGUCGUGGUAUAUUACCUGGUA  0.179
47. GUACUCUUUCACGUGCGCGUGAAAGAGAGAAAUGAACCAGAGAAACACACGUUGUGGUAUAUUACCUGGUA  0.176
48. GUCCUCUUUCACGUGCGCGUGAAAGAGAGAAGUGAACCAGAGAAAGACACGUUGUGGUAUAUUAACUGGUA  0.174
49. AUCCUCUUUCACGUGAGCGUGAAAGAGAGAAGUGAACCAGAGAAACACACGUUGUGGUAUAUUACCUGGUA  0.172
50. GUCCUCUUUCACGUGCGCGUGAAAGAGAGAAGUGAACCAGAGAAACAGACGUUAUGGUAUAUUACCUGGUA  0.172
51. GUCCUCUUUCACGUGCGCGUGAAAGAGAGAAGUGAACCAGAUAAACACACGUUGUUGUAUAUUACCUGGUA  0.169
52. GUCCUCUUUCACGUGCGCAUGAAAGAGAGAAGUGAACGAGAGAAACACACGUUGUGGUAUAUUACCUGGUA  0.159
53. GUCCUCUUUCACGUGCGCGUGAAAGAGAGAAGUGAAGCAGAGAAACACUCGUUGUGGUAUAUUACCUGGUA  0.153
54. GUCCUCUUACACGUGCGCGUGAAAGAGAGAAGUGAACCAGAGAAACACACGUUGUGGUAUAUUACCAGGUA  0.147
55. GUCCUCUUUCACGUGAGCGUGAAAGAGAAAAGUGAACCAGAGAAACACACGUUGUGGUAUAUUACCUGGUA  0.144
56. UUCCUCUUUCACGUGCGCGUGAAAGAGAGAAGUGAACCAGAGUAACACACGUUGUGGUAUAUUACCUGGUA  0.142
57. GUCCUCUUUCACGUGCGCGUGAAAGAGAGAAGUGAACCAUAGAAACACACGUUGUGGUAUAUAACCUGGUA  0.138
58. GUCCUCUUUCACGUGCGCGUGAAAGAGAGAAGUGAACCAGAGAAACACACGUUGUGCUAUAUUACCUGAUA  0.135
59. GUCCGCUUUCACGUGCGCGUGAAAGAGAGAAGUGAACCAUAGAAACACACGUUGUGGUAUAUUACCUGGUA  0.13
60. GUCCUCUUUCACGUGCGCGUGAAAGAGAGAAGUGAACCAGACAAACACACGUUGUGGUAUAUUACCGGGUA  0.125
61. GUCCUCUUUCACGUGCGCGUGAAAGAGAGAAGUGAACCAGAAAAACACACGUUGUGGUAUUUUACCUGGUA  0.125
62. GUCCUCUUUCACGUGCGCCUGAAAGAGAGAAGUGAACCAGAGAAACAAACGUUGUGGUAUAUUACCUGGUA  0.122
63. GUCCUCUUUCACGUGCGCGUGAAAGAGAGAAGUGAACCAGAGAAACACAAGUUGUGGUAUAUUACCUGCUA  0.12
64. GUCCUCUUUCACGUGCGCGUCAAAGAGAGAAGUGAACCAGAGAAAUACACGUUGUGGUAUAUUACCUGGUA  0.116
65. GUCCUCUUUCACGUGCGCGUGAAAGAGAGAAGUGAACCAGAGAAACACACGUUGUUGUAUAUUACCCGGUA  0.111
66. GUCCUCUUUCGCGUGCGCGUGAAAGAGAGAAGUGAACCAGAGAAACACACGUUGUGGUAUAUUUCCUGGUA  0.111
67. GUCGUCUUUCACGUGCGCGUGAAAGAGAGAAGUGAACCAGAGAAACACACGUUGUGGUAAAUUACCUGGUA  0.105
68. GUCCUCUUUGACGUGCGCGUGAAAGAGAGAAGUGAACCAGAGAAACACACGUUGUGGUAUAUCACCUGGUA  0.104
69. GUCCUCUUUCACGUGCGCGUGAAAGAGAGAAGUGAUCCAGAGAAACACACGUUGUGGUAUAUUCCCUGGUA  0.0976
70. GUCCUCUUUCACGUGCGCGUGAAAGAGAGAAGUGAACCAGAGAAACACACGUUGUAGUAUAUUACCUCGUA  0.0908
71. GUCCUCUUUAACGUGCGCGUGAAAGAGAGACGUGAACCAGAGAAACACACGUUGUGGUAUAUUACCUGGUA  0.09
72. GUCCUCUUUCACGUGCGCGUGAAAGAGAGAAGCGAACCAGAGAAACACACGUUGUGGUAUAUUACCUGUUA  0.0808
73. GUCCUCUUUCACGUGCGCGUGAAAGAGAGAAGUGCACCAGAGAAACACACGUUGUGAUAUAUUACCUGGUA  0.0715
74. GUGCUCUUUCACGUGCGCGUGAAAGAGAGAAGUGAACCAGAGAAACACACGUUGUGGUCUAUUACCUGGUA  0.064
75. GUCCUCUUUCACGUGCGCGUGAAAGAGAGAACUGAACCAGAGAAACACACGUUUUGGUAUAUUACCUGGUA  0.0594
76. GUCCUCUUUCACGUGCGCGUGAAAGAGAGAAGUGAACCAGAGAAACACACGUUGGGGUAUAUCACCUGGUA  0.0583

Reference: the RNAGym collection of RNA variant scans (doi:10.7554/elife.80360)
